Reference: PMC8138769

Columns and labels:
[1] = target: Ly49C natural killer domain (NKD), high-affinity mutant (V141K, S171G, E193G, R223K) (murine); test: ITC
[2] = target: Ly49C natural killer domain (NKD), high-affinity mutant (V141K, S171G, E193G, R223K) (murine); test: AUC; sedimentation velocity, 20 °C, absorbance optics, 40,000 rpm; 4.2 μM Ly49C NKD, 3.7 μM peptide/MHC complex, and a mixture of the two; 10 mM HEPES pH 7.4, 150 mM NaCl, 3 mM EDTA, 0.005% surfactant P20
[3] = target: H-2K^b (heavy chain with murine β2-microglobulin) (mouse | murine)

Substance “H-2K^b in complex with the ovalbumin peptide (OVA; SIINFEKL) (from UniProt P01887) (peptide-MHC)” has a Kd [1] of 1.9 µM, a dH [1] of 2 kcal/mol and a stoichiometry N [1] of 1.

“H-2K^b presenting the MMTV gp70 peptide (MMTV; ANYDFICV) (from UniProt P01887 21-119) (peptide-MHC)” was tested, and the Kd [1] was 8 µM, the dH [1] was 2.3 kcal/mol and the stoichiometry N [1] was 1.

For “Ly49C natural killer domain (NKD), high-affinity mutant (V141K, S171G, E193G, R223K) (domain or fragment)”, the stoichiometry N [2] was 2.

In the case of MMTV gp70 peptide (MMTV; ANYDFICV), the apparent Tm of the peptide/H-2K^b complex by differential scanning fluorimetry [3] is reported as 54 °C.

ovalbumin peptide (OVA; SIINFEKL) gave an apparent Tm of the peptide/H-2K^b complex by differential scanning fluorimetry [3] of 58 °C.
